Tests used:
Assay in all cases: Antimicrobial activity of pepsin-treated E. coli displaying multimeric antimicrobial peptide complex
Assay type in all cases: cell-based
Settings in all cases: pepsin-digested in SGF 30 minutes; E. coli BL21 (DE3) = 0%, synthesized Hinge2L = 100%; OD595
[1] = tested on: gram-negative Escherichia coli
Procedure: (§1) The antimicrobial effect of the E. coli strain, constructed in Example 4 and displaying the multimeric antimicrobial peptide complex on the cell surface, was measured. Specifically, the transformed E. coli BL21 (DE3) was cultured in 100 ml of LB medium, and when the culture medium reached an OD600 of 0.5-0.6, 0.2 mM IPTG was added thereto to induce the expression of the multimeric antimicrobial peptide complex linked to the cell surface anchoring motif. 4 hours after the induction of the expression, the medium was removed, and the cells were washed twice with NAPB (sodium phosphate buffer), and then resuspended in the same buffer. All the E. coli samples were adjusted to a cell number of 1×10^10 cfu/ml. Then, pepsin was dissolved in simulated gastric fluid (SGF) (0.084 N HCl, 35 mM NaCl, pH 1.2 or 2.0), and the E. coli cells were treated with the pepsin solution and incubated for 30 minutes. After the incubation, in order to deactivate pepsin and neutralize the pH, the same concentration of NaOH aqueous solution as that of the simulated gastric fluid was added to the cells, and the cell solution was centrifuged to remove cell debris other than the monomeric antimicrobial peptide digested by pepsin.
(§2) The antimicrobial activities of the pepsin-digested monomeric antimicrobial peptide against gram-positive Staphylococus aureus, gram-negative Escherichia coli and the yeast Saccharomyces cerevisiae were measured.
(§3) Each of the microbial strains was collected in the exponential growth phase during the culture, washed twice with NAPB, and then resuspended in the same buffer. The number of the microbial cells was adjusted to 1×10^5 cfu/ml. 10 μl of an aqueous solution containing each microbial strain and the pepsin-digested monomeric antimicrobial peptide was dispensed into each well of a 96-well plate, mixed well and incubated at 37° C. for 3 hours. After 3 hours, 2×TSB (Trypticase Soy Broth) medium was added to the cells which were then incubated at 37° C. for 12 hours, after which the absorbance at OD595 was measured.

[2] = tested on: gram-positive Staphylococus aureus
Procedure: as §1, §2, §3

[3] = tested on: yeast Saccharomyces cerevisiae
Procedure: as §1, §2, §3

B1: LH3: trimer of antimicrobial peptide Hinge2L linked to cell surface anchoring motif Lpp-OmpA, displayed on E. coli BL21 (DE3) (protein)
chain: MKATKLVLGNNNGPTHENQLGAGAFGGYQVNPYVGFEMGYDWLGRMPYKGSVENGAYKAQGVQLTAKLGYPITDDLDIYTRLGGMVWRADTKSNVYGKNHDTGVSPVFAGGVEYAITPEIATRGRLRVVRQWPIGRVVRRVVRRVVRLRVVRQWPIGRVVRRVVRRVVRLRVVRQWPIGRVVRRVVRRVVRL
modifications: displayed on E. coli BL21(DE3); DNA sequence of Lpp-OmpA-Hinge2L3
Q: For B1, which antimicrobial activity [1] is on record?
A: 30%

Q: And the antimicrobial activity [2]?
A: 17.95%

Q: What about the antimicrobial activity [3] of the same molecule?
A: 33.17%
